From patent US20150118700

T1: α-fructosyl hexapeptide (α-fructosyl-valyl-histidyl-leucyl-threonyl-propyl-glutamic acid)
T1 chain: VHLTPE


Molecular target: T1, α-fructosyl hexapeptide …

Row | Protein | αF6P oxidation activity ratio, relative to CFP-T7-H6 designated to be 100 (relative (CFP-T7-H6 = 100)) | αF6P oxidation activity, relative to αFVH oxidation activity designated to be 100 (relative (αFVH = 100)) | other results
1 | CFP-T7-H2-62Q (protein) MTSNRADTRVIVVGGGGTIGSSTALHLVRSGYAPANITVLDTFEIPSAQSAGHDLNKIMGIQLRNKVDLQMSLEARQMWKEDELFQPFFHNTGRMDCEHTPEGIEDLKKLYQALHDAGAGLEKTHAWLDNEDEILSKMPLLQRDQIQGWKAIWSQDGGWLAAAKAINAIGQFLKERGVKFGFGGAGSFKQPLFDDEGTTCIGVETADGTKYYADKVVLAAGAWSPTLVDLEDQCCSKAWVYAHIQLTPEEAAEYKGVPVVYNGEFGFFFEPDEFGVIKVCDEFPGFSRFKEHQPYGAPSPKRISVPRSHAKHPTDTYPDASEVSIKKAIATFLPRFQDKELFNRALCWCTDTADAALLMCEHPKWKNFILATGDSGHSFKILPNVGKYVVELIEGRLPEEMAYQWRWRPGGDALKSRRAAPPKDLADMPGWKHDPKL | – | – | αF6P oxidation activity ratio, relative to CFP-T7-H2 designated to be 100 (relative (CFP-T7-H2 = 100)): 11
2 | CFP-T7-H7 (protein) MTSNRADTRVIVVGGGGTIGSSTALHLVRSGYAPANITVLDTFEIPSAQSAGHDLNKIMGIDLANKVDLQMSLEARQMWKEDELFQPFFHNTGRMDCEHTPEGIEDLKKLYQALHDAGAGLEKTHAWLDNEDEILSKMPLLQRDQIQGWKAIWSQDGGWLAAAKAINAIGQFLKERGVKFGFGGAGSFKQPLFDDEGTTCIGVETADGTKYYADKVVLAAGAWSPTLVDLEDQCCSKAWVYAHIQLTPEEAAEYKGVPVVYNGEFGFFFEPDEFGVIKVCDEFPGFSRFKEHQPYGAPSPKRISVPRSHAKHPTDTYPDASEVSIKKAIATFLPRFQDKELFNRALCWCTDTADAALLMCEHPKWKNFILATGDSGHSFKILPNVGKYVVELIEGRLPEEMAYQWRWRPGGDALKSRRAAPPKDLADMPGWKHDPKL | 17 | – | –
3 | CFP-T7-H2 (protein) MTSNRADTRVIVVGGGGTIGSSTALHLVRSGYAPANITVLDTFEIPSAQSAGHDLNKIMGIALRNKVDLQMSLEARQMWKEDELFQPFFHNTGRMDCEHTPEGIEDLKKLYQALHDAGAGLEKTHAWLDNEDEILSKMPLLQRDQIQGWKAIWSQDGGWLAAAKAINAIGQFLKERGVKFGFGGAGSFKQPLFDDEGTTCIGVETADGTKYYADKVVLAAGAWSPTLVDLEDQCCSKAWVYAHIQLTPEEAAEYKGVPVVYNGEFGFFFEPDEFGVIKVCDEFPGFSRFKEHQPYGAPSPKRISVPRSHAKHPTDTYPDASEVSIKKAIATFLPRFQDKELFNRALCWCTDTADAALLMCEHPKWKNFILATGDSGHSFKILPNVGKYVVELIEGRLPEEMAYQWRWRPGGDALKSRRAAPPKDLADMPGWKHDPKL | – | 0.0735 | αF6P oxidation activity ratio (reference, designated to be 100) (relative (CFP-T7-H2 = 100)): 100
4 | CFP-T7-H8 (protein) MTSNRADTRVIVVGGGGTIGSSTALHLVRSGYAPANITVLDTFEIPSAQSAGHDLNKIMGIDLENKVDLQMSLEARQMWKEDELFQPFFHNTGRMDCEHTPEGIEDLKKLYQALHDAGAGLEKTHAWLDNEDEILSKMPLLQRDQIQGWKAIWSQDGGWLAAAKAINAIGQFLKERGVKFGFGGAGSFKQPLFDDEGTTCIGVETADGTKYYADKVVLAAGAWSPTLVDLEDQCCSKAWVYAHIQLTPEEAAEYKGVPVVYNGEFGFFFEPDEFGVIKVCDEFPGFSRFKEHQPYGAPSPKRISVPRSHAKHPTDTYPDASEVSIKKAIATFLPRFQDKELFNRALCWCTDTADAALLMCEHPKWKNFILATGDSGHSFKILPNVGKYVVELIEGRLPEEMAYQWRWRPGGDALKSRRAAPPKDLADMPGWKHDPKL | 2 | – | –
5 | CFP-T7-H10 (protein) MTSNRADTRVIVVGGGGTIGSSTALHLVRSGYAPANITVLDTFEIPSAQSAGHDLNKIMGIDLRNKVDLQMSLEARQMWKEDELFQPFFHNTGRMDCEHTPEGIEALKKLYQALHDAGAGLEKTHAWLDNEDEILSKMPLLQRDQIQGWKAIWSQDGGWLAAAKAINAIGQFLKERGVKFGFGGAGSFKQPLFDDEGTTCIGVETADGTKYYADKVVLAAGAWSPTLVDLEDQCCSKAWVYAHIQLTPEEAAEYKGVPVVYNGEFGFFFEPDEFGVIKVCDEFPGFSRFKEHQPYGAPSPKRISVPRSHAKHPTDTYPDASEVSIKKAIATFLPRFQDKELFNRALCWCTDTADAALLMCEHPKWKNFILATGDSGHSFKILPNVGKYVVELIEGRLPEEMAYQWRWRPGGDALKSRRAAPPKDLADMPGWKHDPKL | 301 | – | –
6 | CFP-T7-H11 (protein) MTSNRADTRVIVVGGGGTIGSSTALHLVRSGYAPANITVLDTFEIPSAQSAGHDLNKIMGIDLRNKVDLQMSLEARQMWKEDELFQPFFHNTGRMDCEHTPEGIEKLKKLYQALHDAGAGLEKTHAWLDNEDEILSKMPLLQRDQIQGWKAIWSQDGGWLAAAKAINAIGQFLKERGVKFGFGGAGSFKQPLFDDEGTTCIGVETADGTKYYADKVVLAAGAWSPTLVDLEDQCCSKAWVYAHIQLTPEEAAEYKGVPVVYNGEFGFFFEPDEFGVIKVCDEFPGFSRFKEHQPYGAPSPKRISVPRSHAKHPTDTYPDASEVSIKKAIATFLPRFQDKELFNRALCWCTDTADAALLMCEHPKWKNFILATGDSGHSFKILPNVGKYVVELIEGRLPEEMAYQWRWRPGGDALKSRRAAPPKDLADMPGWKHDPKL | 951 | 12.5 | –
7 | CFP-T7-H13 (protein) MTSNRADTRVIVVGGGGTIGSSTALHLVRSGYAPANITVLDTFEIPSAQSAGHDLNKIMGIDLRNKVDLQMSLEARQMWKEDELFQPFFHNTGRMDCEHTPEGIEDLKKLYQKLHDAGAGLEKTHAWLDNEDEILSKMPLLQRDQIQGWKAIWSQDGGWLAAAKAINAIGQFLKERGVKFGFGGAGSFKQPLFDDEGTTCIGVETADGTKYYADKVVLAAGAWSPTLVDLEDQCCSKAWVYAHIQLTPEEAAEYKGVPVVYNGEFGFFFEPDEFGVIKVCDEFPGFSRFKEHQPYGAPSPKRISVPRSHAKHPTDTYPDASEVSIKKAIATFLPRFQDKELFNRALCWCTDTADAALLMCEHPKWKNFILATGDSGHSFKILPNVGKYVVELIEGRLPEEMAYQWRWRPGGDALKSRRAAPPKDLADMPGWKHDPKL | 207 | 4.33 | –
8 | CFP-T7-H14 (protein) MTSNRADTRVIVVGGGGTIGSSTALHLVRSGYAPANITVLDTFEIPSAQSAGHDLNKIMGIDLRNKVDLQMSLEARQMWKEDELFQPFFHNTGRMDCEHTPEGIEDLKKLYQRLHDAGAGLEKTHAWLDNEDEILSKMPLLQRDQIQGWKAIWSQDGGWLAAAKAINAIGQFLKERGVKFGFGGAGSFKQPLFDDEGTTCIGVETADGTKYYADKVVLAAGAWSPTLVDLEDQCCSKAWVYAHIQLTPEEAAEYKGVPVVYNGEFGFFFEPDEFGVIKVCDEFPGFSRFKEHQPYGAPSPKRISVPRSHAKHPTDTYPDASEVSIKKAIATFLPRFQDKELFNRALCWCTDTADAALLMCEHPKWKNFILATGDSGHSFKILPNVGKYVVELIEGRLPEEMAYQWRWRPGGDALKSRRAAPPKDLADMPGWKHDPKL | 183 | 4.22 | –
9 | CFP-T7-H12 (protein) MTSNRADTRVIVVGGGGTIGSSTALHLVRSGYAPANITVLDTFEIPSAQSAGHDLNKIMGIDLRNKVDLQMSLEARQMWKEDELFQPFFHNTGRMDCEHTPEGIERLKKLYQALHDAGAGLEKTHAWLDNEDEILSKMPLLQRDQIQGWKAIWSQDGGWLAAAKAINAIGQFLKERGVKFGFGGAGSFKQPLFDDEGTTCIGVETADGTKYYADKVVLAAGAWSPTLVDLEDQCCSKAWVYAHIQLTPEEAAEYKGVPVVYNGEFGFFFEPDEFGVIKVCDEFPGFSRFKEHQPYGAPSPKRISVPRSHAKHPTDTYPDASEVSIKKAIATFLPRFQDKELFNRALCWCTDTADAALLMCEHPKWKNFILATGDSGHSFKILPNVGKYVVELIEGRLPEEMAYQWRWRPGGDALKSRRAAPPKDLADMPGWKHDPKL | 636 | 11.6 | –
10 | CFP-T7-H9 (protein) MTSNRADTRVIVVGGGGTIGSSTALHLVRSGYAPANITVLDTFEIPSAQSAGHDLNKIMGIDLHNKVDLQMSLEARQMWKEDELFQPFFHNTGRMDCEHTPEGIEDLKKLYQALHDAGAGLEKTHAWLDNEDEILSKMPLLQRDQIQGWKAIWSQDGGWLAAAKAINAIGQFLKERGVKFGFGGAGSFKQPLFDDEGTTCIGVETADGTKYYADKVVLAAGAWSPTLVDLEDQCCSKAWVYAHIQLTPEEAAEYKGVPVVYNGEFGFFFEPDEFGVIKVCDEFPGFSRFKEHQPYGAPSPKRISVPRSHAKHPTDTYPDASEVSIKKAIATFLPRFQDKELFNRALCWCTDTADAALLMCEHPKWKNFILATGDSGHSFKILPNVGKYVVELIEGRLPEEMAYQWRWRPGGDALKSRRAAPPKDLADMPGWKHDPKL | 44 | – | –
11 | CFP-T7-H6 (protein) MTSNRADTRVIVVGGGGTIGSSTALHLVRSGYAPANITVLDTFEIPSAQSAGHDLNKIMGIDLRNKVDLQMSLEARQMWKEDELFQPFFHNTGRMDCEHTPEGIEDLKKLYQALHDAGAGLEKTHAWLDNEDEILSKMPLLQRDQIQGWKAIWSQDGGWLAAAKAINAIGQFLKERGVKFGFGGAGSFKQPLFDDEGTTCIGVETADGTKYYADKVVLAAGAWSPTLVDLEDQCCSKAWVYAHIQLTPEEAAEYKGVPVVYNGEFGFFFEPDEFGVIKVCDEFPGFSRFKEHQPYGAPSPKRISVPRSHAKHPTDTYPDASEVSIKKAIATFLPRFQDKELFNRALCWCTDTADAALLMCEHPKWKNFILATGDSGHSFKILPNVGKYVVELIEGRLPEEMAYQWRWRPGGDALKSRRAAPPKDLADMPGWKHDPKL | – | 3 | αF6P oxidation activity ratio (reference, designated to be 100) (relative (CFP-T7-H6 = 100)): 100; αF6P oxidation activity ratio, relative to CFP-T7-H2 designated to be 100 (relative (CFP-T7-H2 = 100)): 513
12 | CFP-T7-H2-62E (protein) MTSNRADTRVIVVGGGGTIGSSTALHLVRSGYAPANITVLDTFEIPSAQSAGHDLNKIMGIELRNKVDLQMSLEARQMWKEDELFQPFFHNTGRMDCEHTPEGIEDLKKLYQALHDAGAGLEKTHAWLDNEDEILSKMPLLQRDQIQGWKAIWSQDGGWLAAAKAINAIGQFLKERGVKFGFGGAGSFKQPLFDDEGTTCIGVETADGTKYYADKVVLAAGAWSPTLVDLEDQCCSKAWVYAHIQLTPEEAAEYKGVPVVYNGEFGFFFEPDEFGVIKVCDEFPGFSRFKEHQPYGAPSPKRISVPRSHAKHPTDTYPDASEVSIKKAIATFLPRFQDKELFNRALCWCTDTADAALLMCEHPKWKNFILATGDSGHSFKILPNVGKYVVELIEGRLPEEMAYQWRWRPGGDALKSRRAAPPKDLADMPGWKHDPKL | – | – | αF6P oxidation activity ratio, relative to CFP-T7-H2 designated to be 100 (relative (CFP-T7-H2 = 100)): 21
